# Experiments:
# GFP-Atx3 77Q (human) = GFP-Atx3 77Q (human) (UniProt P54252); experiment: co-IP; GFP-Trap agarose precipitates GFP-Atx3 from extracts of co-transfected 293T WT cells (1000 µg total protein, 20 µL bead slurry, 4 °C, 1 h); co-precipitated parkin detected by western blot and quantified by densitometry, n = 3
# GFP-Atx3 15Q (human) = GFP-Atx3 15Q (human) (UniProt P54252); experiment: as above
substance,measurement,setting,value
6xMyc-parkin V380L (from UniProt O60260-1 1-465) (natural protein),reduction of co-precipitated parkin against parkin WT,GFP-Atx3 77Q (human),62%
same,reduction of co-precipitated parkin against parkin WT,GFP-Atx3 15Q (human),87%
